Source: patent US20160264649A1

Assays:
Assay in all cases: cell-based or functional assay
[1] = target: HIV-1 Env of isolate 6535.3 (HIV-1)
[2] = target: HIV-1 Env of isolate 92 BR 020 (HIV-1)
[3] = target: HIV-1 Env of isolate 93IN905 (HIV-1)
[4] = target: HIV-1 Env of isolate 93MW959 (HIV-1)
[5] = target: HIV-1 Env of isolate 93TH305 (HIV-1)
[6] = target: HIV-1 Env of isolate 97ZA012 (HIV-1)
[7] = target: HIV-1 Env of isolate 98IN022 (HIV-1)
[8] = target: HIV-1 Env of isolate APV_13 (HIV-1)
[9] = target: HIV-1 Env of isolate APV_17 (HIV-1)
[10] = target: HIV-1 Env of isolate APV_6 (HIV-1)
[11] = target: HIV-1 Env of isolate CAAN.A2 (HIV-1)
[12] = target: HIV-1 Env of isolate JRCSF (HIV-1) (UniProt P20871)
[13] = target: HIV-1 Env of isolate JRFL (HIV-1)
[14] = target: HIV-1 Env of isolate MG RM-C-020 (HIV-1)
[15] = target: HIV-1 Env of isolate MG RM-C-022 (HIV-1)
[16] = target: HIV-1 Env of isolate MG RM-C-023 (HIV-1)
[17] = target: HIV-1 Env of isolate MG RM-C-024 (HIV-1)
[18] = target: HIV-1 Env of isolate MG RM-C-025 (HIV-1)
[19] = target: HIV-1 Env of isolate MG RM-C-026 (HIV-1)
[20] = target: HIV-1 Env of isolate MG RM-C-027 (HIV-1)
[21] = target: HIV-1 Env of isolate MG RM-C-028 (HIV-1)
[22] = target: HIV-1 Env of isolate MGRM-Chronic-B-001 (HIV-1)
[23] = target: HIV-1 Env of isolate MGRM-Chronic-B-002 (HIV-1)
[24] = target: HIV-1 Env of isolate MGRM-Chronic-B-003 (HIV-1)
[25] = target: HIV-1 Env of isolate MGRM-Chronic-B-004 (HIV-1)
[26] = target: HIV-1 Env of isolate MGRM-Chronic-B-008 (HIV-1)
[27] = target: HIV-1 Env of isolate MGRM-Chronic-B-010 (HIV-1)
[28] = target: HIV-1 Env of isolate MGRM-Chronic-B-011 (HIV-1)
[29] = target: HIV-1 Env of isolate MGRM-Chronic-B-012 (HIV-1)
[30] = target: HIV-1 Env of isolate MGRM-Chronic-B-017 (HIV-1)
[31] = target: HIV-1 Env of isolate MGRM-Chronic-B-018 (HIV-1)
[32] = target: HIV-1 Env of isolate MGRM-Chronic-B-020 (HIV-1)
[33] = target: HIV-1 Env of isolate MGRM-Chronic-B-023 (HIV-1)
[34] = target: HIV-1 Env of isolate MGRM-Chronic-B-024 (HIV-1)
[35] = target: HIV-1 Env of isolate NL43 (HIV-1)
[36] = target: HIV-1 Env of isolate PVO.4 (HIV-1)
[37] = target: HIV-1 Env of isolate QH0692.42 (HIV-1)
[38] = target: HIV-1 Env of isolate SC422661.8 (HIV-1)
[39] = target: HIV-1 Env of isolate SF162 (HIV-1) (UniProt P19550)
[40] = target: HIV-1 Env of isolate THR0.18 (HIV-1)
[41] = target: HIV-1 Env of isolate TRJ04551.58 (HIV-1)
[42] = target: HIV-1 Env of isolate TRO.11 (HIV-1)
[43] = target: HIV-1 Env of isolate VLGCB3 (HIV-1)

## PGT-123 monoclonal antibody (4858_P08)
[1]
  neutralization IC50: 4 ng/mL
[2]
  neutralization IC50: 0.008 µg/mL
[3]
  neutralization IC50: 4 ng/mL
[4]
  neutralization IC50: 0.011 µg/mL
[5]
  neutralization IC50: 8 ng/mL
[6]
  neutralization IC50: 2 ng/mL
[7]
  neutralization IC50: 0.011 µg/mL
[8]
  neutralization IC50: 0.138 µg/mL
[9]
  neutralization IC50: 0.114 µg/mL
[10]
  neutralization IC50: 0.023 µg/mL
[11]
  neutralization IC50: 0.015 µg/mL
[12]
  neutralization IC50: 0.046 µg/mL
[13]
  neutralization IC50: 0.014 µg/mL
[14]
  neutralization IC50: > 50 µg/mL
[15]
  neutralization IC50: 0.01 µg/mL
[16]
  neutralization IC50: 0.011 µg/mL
[17]
  neutralization IC50: 0.195 µg/mL
[18]
  neutralization IC50: 13.3 µg/mL
[19]
  neutralization IC50: 1 ng/mL
[20]
  neutralization IC50: 0.02 µg/mL
[21]
  neutralization IC50: 0.402 µg/mL
[22]
  neutralization IC50: 0.15 µg/mL
[23]
  neutralization IC50: 0.234 µg/mL
[24]
  neutralization IC50: 8 ng/mL
[25]
  neutralization IC50: 8 ng/mL
[26]
  neutralization IC50: 0.01 µg/mL
[27]
  neutralization IC50: 9 ng/mL
[28]
  neutralization IC50: > 50 µg/mL
[29]
  neutralization IC50: 0.227 µg/mL
[30]
  neutralization IC50: > 50 µg/mL
[31]
  neutralization IC50: > 50 µg/mL
[32]
  neutralization IC50: 5 ng/mL
[33]
  neutralization IC50: 0.055 µg/mL
[34]
  neutralization IC50: > 50 µg/mL
[35]
  neutralization IC50: > 50 µg/mL
[36]
  neutralization IC50: 0.105 µg/mL
[37]
  neutralization IC50: 0.158 µg/mL
[38]
  neutralization IC50: 0.039 µg/mL
[39]
  neutralization IC50: 5 ng/mL
[40]
  neutralization IC50: > 50 µg/mL
[41]
  neutralization IC50: 16.9 µg/mL
[42]
  neutralization IC50: 0.008 µg/mL
[43]
  neutralization IC50: 4 ng/mL

## PGT-125 monoclonal antibody (5123_A06)
[1]
  neutralization IC50: 10 ng/mL
[2]
  neutralization IC50: 0.016 µg/mL
[3]
  neutralization IC50: 9 ng/mL
[4]
  neutralization IC50: 37.5 µg/mL
[5]
  neutralization IC50: 8 ng/mL
[6]
  neutralization IC50: 2460 ng/mL
[7]
  neutralization IC50: 22.1 µg/mL
[8]
  neutralization IC50: 0.007 µg/mL
[9]
  neutralization IC50: 8.06 µg/mL
[10]
  neutralization IC50: 0.021 µg/mL
[11]
  neutralization IC50: 5.47 µg/mL
[12]
  neutralization IC50: 0.004 µg/mL
[13]
  neutralization IC50: 0.009 µg/mL
[14]
  neutralization IC50: > 50 µg/mL
[15]
  neutralization IC50: 1.23 µg/mL
[16]
  neutralization IC50: 1.31 µg/mL
[17]
  neutralization IC50: > 50 µg/mL
[18]
  neutralization IC50: 42.5 µg/mL
[19]
  neutralization IC50: 5 ng/mL
[20]
  neutralization IC50: > 50 µg/mL
[21]
  neutralization IC50: 14 µg/mL
[22]
  neutralization IC50: > 50 µg/mL
[23]
  neutralization IC50: 0.064 µg/mL
[24]
  neutralization IC50: 157 ng/mL
[25]
  neutralization IC50: 7 ng/mL
[26]
  neutralization IC50: > 50 µg/mL
[27]
  neutralization IC50: 6 ng/mL
[28]
  neutralization IC50: 3.23 µg/mL
[29]
  neutralization IC50: 0.036 µg/mL
[30]
  neutralization IC50: > 50 µg/mL
[31]
  neutralization IC50: > 50 µg/mL
[32]
  neutralization IC50: 87 ng/mL
[33]
  neutralization IC50: > 50 µg/mL
[34]
  neutralization IC50: > 50 µg/mL
[35]
  neutralization IC50: > 50 µg/mL
[36]
  neutralization IC50: 0.042 µg/mL
[37]
  neutralization IC50: 0.048 µg/mL
[38]
  neutralization IC50: 30.1 µg/mL
[39]
  neutralization IC50: 4 ng/mL
[40]
  neutralization IC50: > 50 µg/mL
[41]
  neutralization IC50: 0.019 µg/mL
[42]
  neutralization IC50: 0.111 µg/mL
[43]
  neutralization IC50: 15 ng/mL

## PGT-122 monoclonal antibody (4877_D15)
[1]
  neutralization IC50: 6 ng/mL
[2]
  neutralization IC50: 0.021 µg/mL
[3]
  neutralization IC50: 13 ng/mL
[4]
  neutralization IC50: 0.016 µg/mL
[5]
  neutralization IC50: 13 ng/mL
[6]
  neutralization IC50: 4 ng/mL
[7]
  neutralization IC50: 0.032 µg/mL
[8]
  neutralization IC50: 0.778 µg/mL
[9]
  neutralization IC50: 0.25 µg/mL
[10]
  neutralization IC50: 0.019 µg/mL
[11]
  neutralization IC50: 0.011 µg/mL
[12]
  neutralization IC50: 0.057 µg/mL
[13]
  neutralization IC50: 0.026 µg/mL
[14]
  neutralization IC50: 14 µg/mL
[15]
  neutralization IC50: 0.012 µg/mL
[16]
  neutralization IC50: 0.027 µg/mL
[17]
  neutralization IC50: 0.102 µg/mL
[18]
  neutralization IC50: 8.69 µg/mL
[19]
  neutralization IC50: 6 ng/mL
[20]
  neutralization IC50: 0.039 µg/mL
[21]
  neutralization IC50: 2.22 µg/mL
[22]
  neutralization IC50: 0.138 µg/mL
[23]
  neutralization IC50: 1.8 µg/mL
[24]
  neutralization IC50: 8 ng/mL
[25]
  neutralization IC50: 8 ng/mL
[26]
  neutralization IC50: 0.017 µg/mL
[27]
  neutralization IC50: 18 ng/mL
[28]
  neutralization IC50: > 50 µg/mL
[29]
  neutralization IC50: 0.066 µg/mL
[30]
  neutralization IC50: 5.66 µg/mL
[31]
  neutralization IC50: > 50 µg/mL
[32]
  neutralization IC50: 5 ng/mL
[33]
  neutralization IC50: 0.01 µg/mL
[34]
  neutralization IC50: 2.31 µg/mL
[35]
  neutralization IC50: > 50 µg/mL
[36]
  neutralization IC50: 0.689 µg/mL
[37]
  neutralization IC50: 0.493 µg/mL
[38]
  neutralization IC50: 0.103 µg/mL
[39]
  neutralization IC50: 9 ng/mL
[40]
  neutralization IC50: > 50 µg/mL
[41]
  neutralization IC50: > 50 µg/mL
[42]
  neutralization IC50: 0.011 µg/mL
[43]
  neutralization IC50: 8 ng/mL
